Measured values taken from PMC12152883, “Bile acids inhibit equilibrative adenosine transport to alter adenosine receptor signaling in cholestasis” (The Journal of Biological Chemistry, 2025).
“And” between values parts separate entries of the source, which are not always exact repeats. Equal values may be shown once. Read-outs that look alike come from different tables or passages of the source.

Key:
ENT3 = test system: ENT3; set-up: method as in PMID 34144123; details: read-out: km of ENT3 for Ado transport; cited from earlier work
ENT2 = target: T1, ENT2 (Homo sapiens, UniProt Q14542); details: cited from earlier work
T1 sequence (Q14542 1-456): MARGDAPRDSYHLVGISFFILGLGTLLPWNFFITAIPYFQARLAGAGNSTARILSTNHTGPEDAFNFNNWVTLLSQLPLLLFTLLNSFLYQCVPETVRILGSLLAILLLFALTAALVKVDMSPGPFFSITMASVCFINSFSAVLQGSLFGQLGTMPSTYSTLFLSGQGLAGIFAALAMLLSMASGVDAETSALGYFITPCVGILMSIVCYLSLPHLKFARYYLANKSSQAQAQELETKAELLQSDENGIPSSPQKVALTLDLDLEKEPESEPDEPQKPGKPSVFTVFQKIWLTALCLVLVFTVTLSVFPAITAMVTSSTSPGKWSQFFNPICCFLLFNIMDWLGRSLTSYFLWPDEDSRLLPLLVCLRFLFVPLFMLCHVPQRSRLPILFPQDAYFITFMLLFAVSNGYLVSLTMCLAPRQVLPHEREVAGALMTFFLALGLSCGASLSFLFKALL

[1] = substrate: C[C@H](CCC(=O)O)[C@H]1CC[C@H]2[C@@H]3CC[C@@H]4C[C@H](O)CC[C@]4(C)[C@H]3C[C@H](O)[C@]12C; assay: Radiolabeled BA transport in ENT2 mRNA-injected Xenopus oocytes; assay type: cell-based, human; details: pH 7.4
Method: (§1) We used a Xenopus oocyte-based transport assay that was previously used to examine BA transport by plasma membrane–directed ENT3 with a truncated N-terminus (that harbors lysosomal targeting motif) to experimentally verify whether ENT2 is capable of translocating BAs across the cell membrane ([24]). We tested both ENT1 and ENT2 along with CNT2, a purine nucleoside-specific concentrative transporter, to investigate their capacities to transport radiolabeled BAs. […] Transport was measured at pH 7.4, which is the closest pH to the pH of the extracellular fluid in which cells are exposed to solutes such as BAs to conduct plasma membrane transport ([29]).
(§2) The generated pOX expression constructs were linearized with either the Not1 or Sac1 restriction enzymes. The digested products were purified via phenol‒chloroform extraction. The mRNAs were synthesized using mMESSAGE mMACHINE (Ambion) transcription kits according to the manufacturer’s instructions. The mRNAs were purified via lithium precipitation. Oocytes were procured from Ecocyte. Prior to experiments, procured oocytes were defolliculated by treating with collagenase A-OR II solution followed by washing with Barth’s solution. Following microscopic verification, selected oocytes were incubated to recover overnight at 25 °C in a shaker incubator. Fifty nanoliters (400–800 ng/μl) of equal amounts of mRNAs were injected into defolliculated oocytes the next day. Expression of plasmids was analyzed after RNA isolation from oocyte extracts and conducting qPCR analysis with gene-specific primers as described earlier ([30]). The injected oocytes were incubated at 15 °C for 24 h before transport assays were performed. The uptake of radiolabeled substrates was measured after a 30 min incubation in transport buffer (100 mM NaCl, 2 mM KCl, 1 mM CaCl2, 1 mM MgCl2, and 10 mM Hepes, pH 7.4) at room temperature. Uptake was terminated by washing the oocytes three times with arrest buffer containing 20 mM uridine. Individual oocytes were shaken overnight in 10% SDS for complete dissolution, and then the radioactivity was quantified with a Beckman liquid scintillation counter. The data are presented as the mean ± SD (n = 8–12 oocytes). A representative experiment from 3 to 5 independent experiments is presented.

[2] = substrate: C[C@H](CCC(=O)O)[C@H]1CC[C@H]2[C@@H]3[C@H](O)C[C@@H]4C[C@H](O)CC[C@]4(C)[C@H]3C[C@H](O)[C@]12C; assay: as above; assay type: cell-based, human; details: pH 7.4
Method: as §1, §2

[3] = other: printed in picture Fig. 2B

In the case of `Nc1ncnc2c1ncn2[C@@H]1O[C@H](CO)[C@@H](O)[C@H]1O` [Ado, adenosine], the Km (ENT3) is listed as 2000 µM and the Km (ENT2; read-out: Km of ENT2 for Ado transport) is listed as roughly 100 µM.

For `Nc1nc2c(ncn2[C@@H]2O[C@H](CO)[C@@H](O)[C@H]2O)c(=O)[nH]1` [guanosine], the Km (ENT2; cloned ENT2-expressing ENT-deficient PK15 cells, read-out: km for guanosine, ENT2) is listed as 2700 µM.

B1: ENT2 (Homo sapiens) (protein)
chain: MARGDAPRDSYHLVGISFFILGLGTLLPWNFFITAIPYFQARLAGAGNSTARILSTNHTGPEDAFNFNNWVTLLSQLPLLLFTLLNSFLYQCVPETVRILGSLLAILLLFALTAALVKVDMSPGPFFSITMASVCFINSFSAVLQGSLFGQLGTMPSTYSTLFLSGQGLAGIFAALAMLLSMASGVDAETSALGYFITPCVGILMSIVCYLSLPHLKFARYYLANKSSQAQAQELETKAELLQSDENGIPSSPQKVALTLDLDLEKEPESEPDEPQKPGKPSVFTVFQKIWLTALCLVLVFTVTLSVFPAITAMVTSSTSPGKWSQFFNPICCFLLFNIMDWLGRSLTSYFLWPDEDSRLLPLLVCLRFLFVPLFMLCHVPQRSRLPILFPQDAYFITFMLLFAVSNGYLVSLTMCLAPRQVLPHEREVAGALMTFFLALGLSCGASLSFLFKALL
notes: The complete ORF of ENT1 (amplified using forward primer); expressed in transfected cells; host or cells: Xenopus laevis oocytes injected with in vitro-transcribed capped mRNA from pOX-hENT2
In the case of B1, the Km ([1]; other: oocytes, Fig. 2B) is reported as 491 µM, the Km [1, 3] is reported as 500 µM and the Km ([2]; other: oocytes, Fig. 2B) is reported as 195 µM and 200 µM. For the same molecule, the Km [2, 3] was 200 µM.
